Assay results: US20180186885A1 (University of California, published 2018)

Legend:
mouse Fzd7 P188L = biological target: T1, mouse Fzd7 P188L (mouse, UniProt Q61090 33-572); assay: reactivity of Fab with mouse Fzd7 point mutants (FIG. 4C-D)
T1 construct: also called MEF-Fzd7P188L

[1] = biological target: FZD7 protein on human cancer cells (OVCAR-4, MDA-MB-231, primary tumour tissue) (human, UniProt O75084 33-574); assay: cell-based or functional assay

B1: FZD7-Fab-1291 (Fab)
light: DVVMSQSPSSLAVSVGEKVTMSCKSSQSLLYSSNQKNYLAWYQQKPGQSPKLLIYWASTRESGVPDRFTGSGSGTDFTLTISSVKAKDLAVYYCQQYYSYPTFGGGTKLEIKRADAAPTVSIFPPSSEQLTSGGASVVCFLNNFYPKDINVKWKIDGSERQNGVLNSWTDQDSKDSTYSMSSTLTLTKDEYERHNSYTCEATHKTSTSPIVKSFNRNESYPYDVPDYAS
heavy: EVQLVESGGGLVKPGGSLKLSCAASGFTFSSYAMSWVRQTPEKRLEWVATISDGGSYTRYPDKLKGRFTISRDNAKNNLYLQMSHLKSEDTAMYYCARVGGRRDYFDYWGQGTTLTVSSAKTTPPSVYPLAPGSAAQTNSMVTLGCLVKGYFPEPVTVTWNSGSLSSGVHTFPAVLQSDLYTLSSSVTVPSSTWPSETVTCNVAHPASSTKVDKKIVPRDCHHHHHHH
notes: The entries as printed end in tag-like residues
Q: Does B1 bind (mouse Fzd7 P188L)?
A: binds

B2: FZD7-Fab-1791 (Fab)
light: DIVMTQSPKSMSMSVGERVTLRCKASENVLNYVSWYQQKPEQSPKLLIYGASNRYTGVPDRFTGSGSATDFTLTISSVQAEDLADYHCGQSYRYPTFGAGTKLELKRADAAPTVSIFPPSSEQLTSGGASVVCFLNNFYPKDINVKWKIDGSERQNGVLNSWTDQDSKDSTYSMSSTLTLTKDEYERHNSYTCEATHKTSTSPIVKSFNRNESYPYDVPDYAS
heavy: EVQPVESGGGLVQPKGSLKLSCAASGFTFNTYAMHWVRQAPGKGLEWVARIRSKSNNYAKNYDDSVKDRFTISRDDSQSMLYLQMNNLKTEDTAMYYCVRENYGGRFDYWGQGTTLTVSSAKTTPPSVYPLAPGSAAQTNSMVTLGCLVKGYFPEPVTVTWNSGSLSSGVHTFPAVLQSDLYTLSSSVTVPSSTWPSETVTCNVAHPASSTKVDKKIVPRDSHHHHHHH
Q: Does B2 bind (mouse Fzd7 P188L)?
A: binds

Q: And the “fold decrease in TOP-Flash Wnt reporter (luciferase) activity in MDA-MB-231 cells treated with Wnt3a (0-5 nM), FZD7-Fab-1791 at 200 nM” value [1]?
A: ~3 fold
